Legend:
[1] = SPR binding of SMB0002 to ADP; conditions: Biacore, NaCl concentration 600 mM; read-out: KD of SMB0002 toward ADP
Protocol: Binding to ADP was assessed by a method similar to the measurement method using Biacore described in Example 3-2, except that the NaCl concentration was changed to 600 mM. Binding of SMB0002 was assessed at ADP concentrations of 2000, 1000 (duplicate), 500, 250, 250, 125, 62.5, and 31.3 μM.

[2] = competitive ELISA of 2′-Adenosine-PEG-Biotin-binding clones with adenosine and ATP; conditions: 50 nM 2′-Adenosine-PEG-Biotin with 500 μM adenosine or ATP; absorbance at 405 nm
Protocol: To immobilize the antibodies, the plate was allowed to stand for one hour or more at room temperature. After the antibodies diluted with PBS were removed from each well, TBS containing 1% BSA was added thereto and the plate was allowed to stand for one hour or more. Then, the TBS (pH 7.4) containing 1% BSA was removed from the plate. 2′-Adenosine-PEG-Biotin diluted to 50 nM with PBS, a mixture of 2′-Adenosine-PEG-Biotin and adenosine diluted to 50 nM and 500 μM respectively with PBS, a mixture of 2′-Adenosine-PEG-Biotin and ATP diluted to 50 nM and 500 μM respectively with PBS, or PBS alone was added to the plate. The plate was allowed to stand at room temperature for one hour, and then washed three times with 80 μl of PBS containing 0.05% Tween-20. Then, Streptavidin-HRP (Thermo fisher scientific) diluted 20000 times with PBS was added to each well, and the plate was allowed to stand for one hour or more at room temperature. After the plate was washed three times with 80 μl of PBS containing 0.05% Tween-20, a chromogenic substrate (ABTS peroxidase substrate) was added to each well. After the plate was incubated for one hour, color development in the solution of each well was assessed by measuring absorbance at 405 nm using SpectraMax from Molecular Device.

[3] = SPR binding of SMB0002 to AMP; conditions: Biacore; read-out: KD of SMB0002 toward AMP
Protocol: Binding of SMB0002 was assessed at AMP concentrations of 500, 250 (duplicate), 125, 62.5, 31.25, 15.625, and 7.8125 μM.

[4] = SPR (Biacore T200) binding of SMB0002 to ATP; conditions: Biacore T200, 25° C., antibody captured on protein A/G; read-out: KD of SMB0002 toward ATP
Protocol: Biacore T200 (GE Healthcare) was used to analyze interaction in the antigen-antibody reaction with ATP. The antibody of interest was captured onto protein A/G (Invitrogen) immobilized in an appropriate amount onto Sensor chip CM5 (GE Healthcare) by the amine coupling method, and ATP which is the antigen was allowed to interact. The running buffer used was 10 mmol/L ACES, 150 mmol/L NaCl, 0.05% (w/v) Tween 20, pH 7.4. All measurements were carried out at 25° C. The antigen was diluted with running buffer.
(§1) Then, running buffer was run at a flow rate of 20 μL/min for three minutes and dissociation of the antigen from the antibody was observed. Next, 10 mmol/L glycine-HCl, pH 1.5, was injected at a flow rate of 30 μL/min for 30 seconds to regenerate the sensor chip. Kinetic parameters such as the association rate constant ka (1/Ms) and the dissociation rate constant kd (l/s) were calculated based on the sensorgrams obtained by the measurements. The dissociation constant KD (M) was calculated from these constants. Each parameter was calculated using the Biacore T200 Evaluation Software (GE Healthcare).

[5] = SPR (Biacore T200) binding of SMB0002 to adenosine; conditions: Biacore T200, 25° C., antibody captured on protein A; read-out: KD of SMB0002 toward adenosine
Protocol: Using Biacore T200 (GE Healthcare), the antibody SMB0002 obtained by the B cell cloning method was analyzed for its interaction with adenosine in antigen-antibody reaction. Sensor chip CM5 (GE Healthcare) was immobilized with an appropriate amount of protein A (Invitrogen) by amine coupling. Antibodies of interest were captured by the chip to allow interaction to adenosine as an antigen. The running buffer used was 50 mmol/1 TrisHCl, 150 mmol/1 NaCl, 0.02% (w/v) Tween20, pH 7.6. All measurements were carried out at 25° C. The antigens were diluted using the running buffer.
as §1, with “of 30” for “of 20”, “for four” for “for three”, “was loaded” for “was injected”

[6] = Tm measurement by DSC
Protocol: Measurement by DSC was carried out by a method known to those skilled in the art.
DSC measurement was carried out by a method known to those skilled in the art.

[7] = competitive phage ELISA with ATP; assay type: binding; conditions: ATP from equal amount up to 10000 times that of the antigen
Protocol: ATNLSA1-4_D12 and PF1 were each diluted with TBS and subjected to ELISA by the following procedure.
A StreptaWell 96 microtiter plate (Roche) was coated at room temperature for one hour with 100 μl of TBS containing biotin-labeled antigens (a mixture of 5′-adenosine-PEG-biotin and ATP-PEG-biotin). After the antigens were removed by washing each well of the plate with TBST, the wells were blocked with 250 μl of 2% skim milk/TBS for one hour or more. 2% skim milk/TBS was removed, and then the prepared, purified phages were added to each well. The plate was allowed to stand at room temperature for one hour to allow binding of the antibody-displaying phages to the antigens in each well. […] For the competition of the immobilized antigen with ATP, the plate was allowed to stand at room temperature for one hour. Then, after TBST wash, an HRP-conjugated anti-M13 antibody (Amersham Pharmacia Biotech) diluted with TBS was added to each well. The plate was incubated for one hour. Following TBST wash, the TMB single solution (ZYMED) was added to each well. The chromogenic reaction in the solution of each well was terminated by adding sulfuric acid. Then, the developed color was assessed by measuring absorbance at 450 nm.

[8] = SPR (Biacore T200) binding of D12 to ADP; conditions: Biacore T200, 15° C., 500 mM NaCl
Protocol: (§2) Sensor chip CM5 or CM4 (GE Healthcare) was immobilized with an appropriate amount of protein A (Life technologies) by amine coupling. The antibody of interest was captured by the chip to allow interaction with ATP (Wako), adenosine (Wako), or ADP (adenosine diphosphate) (Wako) as an antigen. The running buffer used was 50 mM Tris-HCl (Takara, T903), 500 mM NaCl, 0.01% (w/v) Tween20. The antigen was allowed to interact for 30 seconds at a flow rate of 30 μl/min, and was dissociated for 30 seconds. The interaction with the antigen was assessed at 15° C. The antigen was diluted using the same running buffer.
(§3) The dissociation constant KD (M) was calculated based on the association rate constant ka (1/Ms) and dissociation rate constant kd (l/s), both of which are kinetic parameters calculated from the sensorgram obtained by the measurement. Alternatively, the dissociation constant KD (M) was calculated using steady state analysis. Each parameter was calculated using the Biacore T200 Evaluation Software (GE Healthcare).

[9] = SPR (Biacore T200) binding of D12 and ATNLSA1-4_D12 variants to ATP; conditions: Biacore T200, 15° C., 500 mM NaCl
Protocol: as §2, §3
Based on the assay result, the affinity of each variant for ATP was calculated as a KD value. […]
It was determined that amino acids substituted at the sites could be included in a library (flexible residues to be introduced into a library).

[10] = phage ELISA for binding to 5′-adenosine-PEG-biotin
Protocol: (§4) Next, for the purpose of confirming to which antigen of 2′-adenosine-PEG-biotin, 5′-adenosine-PEG-biotin, and ATP-PEG-biotin these clones have binding ability, the purified phages diluted with TBS were subjected to ELISA by the following procedure. A StreptaWell 96 microtiter plate (Roche) was coated at room temperature for one hour with 100 μl of TBS containing a biotin-labeled antigen (2′-adenosine-PEG-biotin, 5′-adenosine-PEG-biotin, or ATP-PEG-biotin). After the antigens were removed by washing each well of the plate with TBST, the wells were blocked with 250 μl of 2% skim milk/TBS for one hour or more. 2% skim milk/TBS was removed, and then the prepared, purified phages were added to each well. The plate was allowed to stand at room temperature for one hour to allow binding of antibody-displaying phages to antigens in each well. After TBST wash, a HRP-conjugated anti-M13 antibody (Amersham Pharmacia Biotech) diluted with TBS was added to each well. The plate was incubated for one hour. Following TBST wash, the TMB single solution (ZYMED) was added to each well. The chromogenic reaction in the solution of each well was terminated by adding sulfuric acid. Then, the developed color was assessed by measuring absorbance at 450 nm.

[11] = phage ELISA for binding to ATP-PEG-biotin
Protocol: as §4

[12] = SPR (Biacore T200) binding of D12 and variants to adenosine; conditions: Biacore T200, 15° C., corrected with 20 μmo1/1 ADP, Formula 2
Protocol: as §2, §3
To calculate the KD for adenosine, the binding response was assessed at various concentrations of adenosine in the presence or absence of 20 μmo1/1 ADP. In addition, the binding response was separately assessed in the presence of 20 μmo1/1 ADP. […]

Molecule	Kd [1]	binding to 2′-Adenosine-PEG-Biotin on adding excess amounts of adenosine and ATP [2]	Kd [3]	Kd [4]	Kd [5]	Tm [6]	binding to biotin-labeled antigen with ATP as competitor [7]	Kd [8]	Kd [9]	binding to 5′-Adenosine-PEG-biotin [10]	binding to ATP-PEG-biotin [11]	Kd [12]
SMB0002: rabbit B cell cloning antibody binding adenosine and ATP; heavy chain SEQ ID NO: 30, light chain SEQ ID NO: 31 (antibody, listed as Oryctolagus cuniculus) heavy: CQSVEESGGRLVTPGTPLTLTCTVSGIDLSNYAMGWVRQAPGKGLEWIGIIGADSSTWYPSWVKGRFTISKTSTTVDLKMTSLTTEDTATYFCARGRFVGYTNAFDPWGPGTLVTVSS light: AQVLTQTPSSVSAAVGGTVTISCQSSQSVWNNNYLSWYQQKPGQPPKLLIFDASTLASGVPSRFSGRGSGTQFTLTISGVQCEDAATYYCHGSYANSGWYDNAFGGGTEVVVK	240 µM	inhibited	59 µM	10 µM	0.015 µM							
ATNLSA1-4_D12: ATP/adenosine-binding antibody; heavy-chain variable region SEQ ID NO: 48, light-chain variable region SEQ ID NO: 49 (antibody, listed as Homo sapiens, V domains shown) VH: QVQLQESGGDLVKPGGFLRLSCAASGFTFNTYTMNWVRQAPGKGLEWLSSISSRSNYINYADSVKGRFTISRDNAKNSLYLQMNSLRAEDTAVYYCARFGRKGDLNWVFDYWGQGTLVTVSS VL: QSALTQPPSASGSPGQTVTISCTGTSSDVGGYNYVSWYQQHPGKAPKLMIYEVSKRPSGVPDRFSGSKSGNTASLTVSGLQAEDEADYFCSSYAGSNNVVFGGGTKLTVL						74.37 °C	inhibited in an ATP concentration-dependent manner	0.25 µM	8.5 µM	ability to bind	ability to bind	1100 µM
